What was measured:
[1] = target: D-threonine aldolase from Alcaligenes xylosoxidans (Alcaligenes xylosoxidans IFO 12669); assay: crystal structure; X-ray, 1.5 Å, space group P2(1), two molecules per asymmetric unit; crystals from 200 mM sodium chloride, 100 mM Tris/HCl pH 8.1, 13% (w/v) PEG-3350
[2] = target: T1, AxDTA; D-threonine aldolase from Alcaligenes xylosoxidans (Achromobacter xylosoxidans, UniProt A0A0J9X243); assay: X-ray crystallography, […] Å; assay type: binding; details: active site; two alternate conformations: covalent (internal aldimine with Lys59, ~40% occupancy) and non-covalent (~60%); Mn2+ nearby; crystals at pH 8.1
T1 construct: full-length, residues 1-379, cloned from genomic DNA into pET101/D-TOPO with native TGA stop (degenerate reverse primer), no tag; E. coli BL21 Star (DE3); treated by reductive lysine methylation before crystallisation (no methylation seen in density); residues 1-6 (A) and 1-7 (B) disordered; dimer in crystal
T1 sequence (A0A0J9X243 1-379): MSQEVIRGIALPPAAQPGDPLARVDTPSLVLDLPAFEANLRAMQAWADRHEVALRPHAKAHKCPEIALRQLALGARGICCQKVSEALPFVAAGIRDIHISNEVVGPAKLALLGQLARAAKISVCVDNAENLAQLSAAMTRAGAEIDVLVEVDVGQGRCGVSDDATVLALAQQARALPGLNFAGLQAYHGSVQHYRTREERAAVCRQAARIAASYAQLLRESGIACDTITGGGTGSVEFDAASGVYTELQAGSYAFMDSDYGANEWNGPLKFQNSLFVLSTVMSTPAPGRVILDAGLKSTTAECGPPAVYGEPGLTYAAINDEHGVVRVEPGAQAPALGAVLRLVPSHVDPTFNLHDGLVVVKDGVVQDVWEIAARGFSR

Compound | stoichiometry N [1] | X-ray crystallography, 1.5 Å [2]
D-threonine aldolase from Alcaligenes xylosoxidans (enzyme) | 2 | 
Cc1ncc(COP(=O)(O)O)c(C=O)c1O [PLP, pyridoxal phosphate] |  | modeled by a molecule of pyridoxal phosphate (PLP) in two alternate conformations: covalently linked to Lys59
